From patent US20260125478A1 (VIELA BIO, published 2026) come the findings set out here.

The EC50 (read off the curve) is the midpoint of the concentration-response curve.

To fix the notation:
T1: recombinant FcγRIIA-131H/H allotype (ELISA coat, generated at MedImmune) (human, UniProt P12318 34-217, limits assumed)
T1 construct: also called human FcγRIIA; CD32A
T1 sequence (looked up): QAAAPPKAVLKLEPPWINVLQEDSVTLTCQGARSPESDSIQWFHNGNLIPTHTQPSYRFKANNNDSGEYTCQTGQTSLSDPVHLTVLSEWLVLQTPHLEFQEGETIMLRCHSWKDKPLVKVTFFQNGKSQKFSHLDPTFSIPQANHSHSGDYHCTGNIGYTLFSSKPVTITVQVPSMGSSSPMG

T2: human FcγRIIA 131H on blood cells of 131H/H donors (human, UniProt P12318 34-317)
T2 sequence (looked up): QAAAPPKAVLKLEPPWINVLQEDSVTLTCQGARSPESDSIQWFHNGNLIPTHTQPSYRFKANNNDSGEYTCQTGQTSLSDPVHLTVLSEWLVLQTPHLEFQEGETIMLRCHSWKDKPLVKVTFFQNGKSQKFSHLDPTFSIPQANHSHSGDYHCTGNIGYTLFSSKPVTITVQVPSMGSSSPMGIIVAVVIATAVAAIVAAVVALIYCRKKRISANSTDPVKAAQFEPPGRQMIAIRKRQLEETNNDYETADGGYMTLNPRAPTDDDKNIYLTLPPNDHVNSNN

T3: Human CD32A 131R extracellular domain, 6xHis_Flag tagged (human, UniProt P12318 34-217)
T3 construct: also called Hu CD32A_131Arg; human CD32A_131 Arg
T3 chain: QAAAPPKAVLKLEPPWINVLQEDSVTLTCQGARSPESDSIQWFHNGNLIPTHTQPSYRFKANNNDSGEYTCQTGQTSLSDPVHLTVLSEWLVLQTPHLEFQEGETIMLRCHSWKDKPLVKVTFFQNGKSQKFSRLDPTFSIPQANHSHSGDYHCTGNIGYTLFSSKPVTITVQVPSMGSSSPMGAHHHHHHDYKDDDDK

T4: human FcγRIIA 131R on blood cells of 131R/R donors (human, UniProt P12318 34-317)
T4 sequence: T2 sequence (looked up) with H134R

T5: recombinant FcγRIIB (ELISA coat, generated at MedImmune) (UniProt P31994 43-217, limits assumed)
T5 construct: also called CD32B
T5 sequence (looked up): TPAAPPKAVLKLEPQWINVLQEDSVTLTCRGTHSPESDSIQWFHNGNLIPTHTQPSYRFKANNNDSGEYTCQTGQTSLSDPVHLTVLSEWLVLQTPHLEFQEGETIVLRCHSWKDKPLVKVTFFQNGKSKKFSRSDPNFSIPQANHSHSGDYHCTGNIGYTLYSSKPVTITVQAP

B1: 32LO0350 (antibody, human IgG1, V domains shown)
VH: QVQLVQSGAEVKKPGASVKVSCKASGYTFTNYGMNWVRQAPGQRLEWMGWLNTYTGESWYPDDFKGRVTITRDTSASTAYMELSSLRSEDTAVYYCARGDYGYDDPLDYWGQGTLVTVSS
VL: DIVMTQSPLSLPVTPGEPASISCRSSKSLLHTNRNTYLHWFLQKPGQSPQLLIYRMSVLASGVPDRFSGSGSGTDFTLKISRVEAEDVGVYYCMQHLEYPLTFGQGTKLEIK
notes: also called optimized IV.3 clone 32LO0350
B2: 32LO0355 (antibody, human IgG1, V domains shown)
VH: B1 VH
VL: B1 VL with R34K
notes: also called optimized IV.3 clone 32LO0355
B3: 32LO0354 (antibody, human IgG1, V domains shown)
VH: B1 VH with W59Y
VL: B1 VL
notes: also called optimized IV.3 clone 32LO0354
B4: CamIV3 (antibody, V domains shown)
VH: B1 VH with W59I
VL: B1 VL with N33L, R34G
B5: 32LO0351 (antibody, V domains shown)
VH: B1 VH with W59Y
VL: B1 VL with N33Y, R34G
B6: 32LO0356 (antibody, V domains shown)
VH: B1 VH with W59Y
VL: B1 VL with R34F

Residue numbers refer to the chain shown, from its start.

T8 sequence (P08637 17-208 limits assumed): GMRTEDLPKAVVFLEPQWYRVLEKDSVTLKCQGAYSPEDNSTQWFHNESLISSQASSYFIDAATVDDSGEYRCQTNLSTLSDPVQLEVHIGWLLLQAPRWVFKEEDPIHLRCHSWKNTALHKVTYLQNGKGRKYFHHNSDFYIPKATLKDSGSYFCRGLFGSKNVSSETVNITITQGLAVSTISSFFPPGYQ

The first experiment concerns the target T1, recombinant FcγRIIA-131H/H allotype …. As to the kind of experiment: ELISA on plate-coated FcγRIIA-131H/H (2 µg/ml), detection with goat anti-human Fc-HRP. Here is the method: (§1) Plates were washed five times with 200 μl of wash buffer (PBS containing 0.1% Tween 20), blocked with blocking buffer containing 5% milk in PBS for 1 hour at room temperature, and washed five additional times with wash buffer. Three-fold serial dilutions of the test antibody or control antibody (R347-Tm) were added to wells in duplicate. Plates were incubated for 2 hours at room temperature, and washed five times with wash buffer. Binding of the antibodies to the FcγRs was detected by adding 50 μl of goat anti-human Fc-HRP (Jackson ImmunoResearch Laboratories, PA) to the wells and incubating for 1 hour at room temperature, washing 10 times, and adding 50 μl TMB substrate (Pierce Biotechnology, MA). The color reaction was stopped with 50 μl 0.2M […] and the absorbance was measured using a spectrophotometer (Molecular Devices, CA) at […].
For orientation: In an ELISA, binding on a coated surface is turned into a signal by an enzyme label.
B1: the half-maximal effective concentration (EC50 (read off the curve)) is about 5 ng/mL.

Take B2: the “EC50 (read off the curve)” value was about 5 ng/mL.

As to B3, the “EC50 (read off the curve)” value was about 5 ng/mL.

For another experiment, the target named is T2, human FcγRIIA 131H on blood cells of …. As to the kind of experiment: cell-based or functional assay.
With B4, the “IC50 of the loss of surface FcγRIIA (M.F.I of IV.3-Alexa 647) on monocytes, whole blood, 2 h at 37 °C” value came out at 0.241 nM.

Regarding B5, the “IC50 of the loss of surface FcγRIIA (M.F.I of IV.3-Alexa 647) on monocytes, whole blood, 2 h at 37 °C” value amounted to 0.0524 nM.

Regarding B1, the “IC50 of the loss of surface FcγRIIA (M.F.I of IV.3-Alexa 647) on monocytes, whole blood, 2 h at 37 °C” value was found to be 0.0692 nM.

For B6, the “IC50 of the loss of surface FcγRIIA (M.F.I of IV.3-Alexa 647) on monocytes, whole blood, 2 h at 37 °C” value was determined as 0.044 nM.

B2: the “IC50 of the loss of surface FcγRIIA (M.F.I of IV.3-Alexa 647) on monocytes, whole blood, 2 h at 37 °C” value came out at 0.0915 nM.

In the case of B3, the “IC50 of the loss of surface FcγRIIA (M.F.I of IV.3-Alexa 647) on monocytes, whole blood, 2 h at 37 °C” value was found to be 0.0417 nM.

For another experiment, the target named is T6, recombinant human FcγRI (ELISA coat, generated at MedImmune) (human, UniProt P12314 16-292, limits assumed).
T6 construct: also called CD64
T6 sequence (P12314 16-292 limits assumed): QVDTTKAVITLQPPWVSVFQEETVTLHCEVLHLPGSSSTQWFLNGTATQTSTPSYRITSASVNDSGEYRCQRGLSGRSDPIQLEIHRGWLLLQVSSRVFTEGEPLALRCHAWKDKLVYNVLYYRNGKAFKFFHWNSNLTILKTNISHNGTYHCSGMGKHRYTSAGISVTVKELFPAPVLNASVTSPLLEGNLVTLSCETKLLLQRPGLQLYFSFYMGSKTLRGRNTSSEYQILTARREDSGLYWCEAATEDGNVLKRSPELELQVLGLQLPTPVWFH
Kind of experiment: ELISA on plate-coated FcγRI (2 µg/ml), detection with goat anti-human Fc-HRP. As for the experimental part: as §1
For B1, the binding result was “no binding (tested: about 15000 ng/ml)”.

Consider B2, for which the binding result was “no binding (tested: about 15000 ng/ml)”.

For the molecule B3, the binding result was “no binding (tested: about 15000 ng/ml)”.

The target in the next experiment is T7, recombinant human FcγRIIIA-158V allotype (ELISA coat, generated at MedImmune) (human, UniProt P08637 17-208, limits assumed).
T7 construct: also called FcγRIII-158V allotype; CD16A 158V
T7 sequence (P08637 17-208 F176V limits assumed): as the sequence (P08637 17-208 limits assumed) above, with F160V counted along it
As to the kind of experiment: ELISA on plate-coated FcγRIIIA-158V (2 µg/ml), detection with goat anti-human Fc-HRP. As for the experimental part:
as §1
With B1, the binding result was “no binding (tested: about 15000 ng/ml)”.

As to B2, the binding result is “no binding (tested: about 15000 ng/ml)”.

B3: the binding result was “no binding (tested: about 15000 ng/ml)”.

A further experiment addresses cynomolgus monkey FcγRIIA on blood cells (cynomolgus monkey). Kind of experiment: cell-based or functional assay.
For B4, the “IC50 of the loss of surface FcγRIIA (M.F.I of IV.3-Alexa 647) on cynomolgus monocytes, whole blood, 2 h at 37 °C” value amounted to 10.5 nM.

As for B5, the “IC50 of the loss of surface FcγRIIA (M.F.I of IV.3-Alexa 647) on cynomolgus monocytes, whole blood, 2 h at 37 °C” value worked out at 16.4 nM.

Take B1: the “IC50 of the loss of surface FcγRIIA (M.F.I of IV.3-Alexa 647) on cynomolgus monocytes, whole blood, 2 h at 37 °C” value was determined as 1.2 nM.

As to B6, the “IC50 of the loss of surface FcγRIIA (M.F.I of IV.3-Alexa 647) on cynomolgus monocytes, whole blood, 2 h at 37 °C” value was 3.78 nM.

For the molecule B2, the “IC50 of the loss of surface FcγRIIA (M.F.I of IV.3-Alexa 647) on cynomolgus monocytes, whole blood, 2 h at 37 °C” value was found to be 1.01 nM.

Turning to B3, the “IC50 of the loss of surface FcγRIIA (M.F.I of IV.3-Alexa 647) on cynomolgus monocytes, whole blood, 2 h at 37 °C” value was 5.14 nM.

In another experiment the target is T3, Human CD32A 131R extracellular domain, …. As to the kind of experiment: HTRF epitope competition: sample IgG titrated against binding of mouse IV.3 IgG to human CD32a 131R. A general note: Time-resolved FRET reads energy transfer from a long-lived donor to a nearby acceptor.
With B1, the binding result is reported as “binds”.

Consider B2, for which the binding result is given as “binds”.

For the molecule B3, the binding result is given as “binds”.

Another experiment addresses T4, human FcγRIIA 131R on blood cells of …. Kind of experiment: cell-based or functional assay.
Take B4: the “IC50 of the loss of surface FcγRIIA (M.F.I of IV.3-Alexa 647) on monocytes, whole blood, 2 h at 37 °C” value amounted to 0.307 nM.

In the case of B5, the “IC50 of the loss of surface FcγRIIA (M.F.I of IV.3-Alexa 647) on monocytes, whole blood, 2 h at 37 °C” value was found to be 0.0559 nM.

For B1, the “IC50 of the loss of surface FcγRIIA (M.F.I of IV.3-Alexa 647) on monocytes, whole blood, 2 h at 37 °C” value worked out at 0.0537 nM.

Turning to B6, the “IC50 of the loss of surface FcγRIIA (M.F.I of IV.3-Alexa 647) on monocytes, whole blood, 2 h at 37 °C” value stood at 0.0431 nM.

For the molecule B2, the “IC50 of the loss of surface FcγRIIA (M.F.I of IV.3-Alexa 647) on monocytes, whole blood, 2 h at 37 °C” value came to 0.0644 nM.

Regarding B3, the “IC50 of the loss of surface FcγRIIA (M.F.I of IV.3-Alexa 647) on monocytes, whole blood, 2 h at 37 °C” value was determined as 0.039 nM.

The target in the next experiment is T5, recombinant FcγRIIB (ELISA coat, …). As to the kind of experiment: ELISA on plate-coated FcγRIIB (2 µg/ml), detection with goat anti-human Fc-HRP. As for the experimental part:
as §1
As to B1, the binding result is on record as “no binding (tested: about 15000 ng/ml)”.

On to B2, for which the binding result was “no binding (tested: about 15000 ng/ml)”.

As for B3, the binding result is “no binding (tested: about 15000 ng/ml)”.

The next experiment concerns the target T8, recombinant human FcγRIIIA-158F allotype (ELISA coat, generated at MedImmune) (human, UniProt P08637 17-208, limits assumed).
T8 construct: also called FcγRIII-158F allotype; CD16A 158F
Kind of experiment: ELISA on plate-coated FcγRIIIA-158F (2 µg/ml), detection with goat anti-human Fc-HRP. Here is the method:
as §1
In the case of B1, the binding result was “no binding (tested: about 15000 ng/ml)”.

Take B2: the binding result is “no binding (tested: about 15000 ng/ml)”.

For the molecule B3, the binding result is given as “no binding (tested: about 15000 ng/ml)”.
